Molecular target: biotinylated preS1 peptide 79–108 carrying 89D and 90K (hepatitis B virus (residues numbered …, biotin (position not stated for this peptide)))
Test: pull-down; 2 µM biotinylated preS1 peptide on Dynabeads MyOne Streptavidin T1, incubated with 2 µg purified protein 1 h at 37°C, washed with PBS 0.01% Tween 20, Western blot (anti-HA or anti-human IgG1); the paper calls it immunoprecipitation (IP-Western)
Conditions: both partners purified

B1: sEGF4–6-hFc (soluble fusion protein comprising SCARF2's EGF4–6 domains, with an N-terminal HA tag and a C-terminal human IgG1 Fc tag) (Fc fusion)
chain: GSYPYDVPDYAGSSACYCSATSRCDPQTGACLCHAGWWGRSCNNQCACNSSPCEQQSGRCQCRERTFGARCDRYCQCFRGRCHPVDGTCACEPGYRGKYCR
fold efficiency of precipitation against preS1 79–108 QT and QS peptides: ~2 fold

Source: doi:10.1101/2025.06.13.659407, “Scavenger Receptor class F member 2 is an intracellular receptor for Hepatitis B virus” (bioRxiv, 2025)
